Test results: the supplement of paper PMC12338614
± gives the uncertainty stated by the source.

B1: library; numbered along this chain (parent)
chain: MEVVDPQQLGMFTEGELMSVGMDTFIHRIDSTEVIYQPRRKRAKLIGKYLMGDLLGEGSYGKVKEVLDSETLCRRAVKILKKKKLRRIPNGEANVKKEIQLLRRLRHKNVIQLVDVLYNEEKQKMYMVMEYCVCGMQEMLDSVPEKRFPVCQAHGYFCQLIDGLEYLHSQGIVHKDIKPGNLLLTTGGTLKISDLGVAEALHPFAADDTCRTSQGSPAFQPPEIANGLDTFSGFKVDIWSAGVTLYNITTGLYPFEGDNIYKLFENIGKGSYAIPGDCGPPLSDLLKGMLEYEPAKRFSIRQIRQHSWFRKKHPPAEAPVPIPPSPDTKDRWRSMTVVPYLEDLHGADEDEDLFDIEDDIIYTQDFTVPGQVPEEEASHNGQRRGLPKAVCMNGTEAAQLSTKSRAEGRAPNPARKACSASSKIRRLSACKQQ

Variants of: B1
Assay: STK11 functional score (HeLa growth suppression), rescaled enrichment; synonymous median = 1, nonsense median = 0 (normalised score)
Conditions: with HeLa; variant type: missense
Experimental: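 Deep mutational scan (TileSeq/POPCode codon randomisation) of full-length codon-optimised STK11 cDNA integrated at a Bxb1 landing pad (AAVS1) in HeLa cells. Restoring functional STK11 suppresses HeLa proliferation. Variant frequencies were measured by NGS before and after about two weeks of growth. The error-corrected enrichment log-ratio was rescaled so that synonymous median = 1 and nonsense median = 0, scores above 1 were compressed, and codon-level and three biological replicate scores were combined; error is the bootstrapped standard error. Scale: synonymous median = 1, nonsense median = 0; below 0.5 = damaging.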
I267F gave an STK11 functional score of 0.659 ± 0.071. With I248F the STK11 functional score was 0.497 ± 0.092. D53M was tested, and the STK11 functional score was 0.483 ± 0.2. In the case of D53R, the STK11 functional score is reported as 1.58 ± 0.26. In the case of Q159Y, the STK11 functional score is reported as 1.03 ± 0.46. Q159C gave an STK11 functional score of 0.889 ± 0.35. G135C was tested, and the STK11 functional score was 1.54 ± 0.27. V3L gave an STK11 functional score of 0.558 ± 0.13. L286A was tested, and the STK11 functional score was 0.163 ± 0.2. L286G was tested, and the STK11 functional score was -0.0797 ± 0.098. In the case of Y340A, the STK11 functional score is reported as 1.56 ± 0.17. R103L showed an STK11 functional score of 0.918 ± 0.12. Variant G61A has an STK11 functional score of 1.35 ± 0.32. P254A showed an STK11 functional score of -0.109 ± 0.13. I111G showed an STK11 functional score of 0.385 ± 0.19. For I111Q, the STK11 functional score was 1.66 ± 0.17. Y246Q gave an STK11 functional score of 1.11 ± 0.17. W308R showed an STK11 functional score of -0.166 ± 0.096. K83Y showed an STK11 functional score of 1.15 ± 0.15. Variant H154A has an STK11 functional score of 1.49 ± 0.24. H154Y was tested, and the STK11 functional score was 1.26 ± 0.12. In the case of L72Y, the STK11 functional score is reported as 1.04 ± 0.11. Variant L72K has an STK11 functional score of 1.08 ± 0.79. S401D gave an STK11 functional score of 1.19 ± 0.36. For K329D, the STK11 functional score was 1.56 ± 0.27. In the case of K329E, the STK11 functional score is reported as 1.32 ± 0.077. Q302L gave an STK11 functional score of 1.45 ± 0.23. Variant A198N has an STK11 functional score of 0.745 ± 0.5. In the case of H345L, the STK11 functional score is reported as 1.2 ± 0.16. For V20I, the STK11 functional score was 1.22 ± 0.31. Variant V20L has an STK11 functional score of 0.787 ± 0.15. For D176V, the STK11 functional score was 0.0775 ± 0.082. D176H showed an STK11 functional score of -0.154 ± 0.14. Variant L290W has an STK11 functional score of 0.691 ± 0.1. In the case of I322T, the STK11 functional score is reported as 0.984 ± 0.58. I322H showed an STK11 functional score of 0.839 ± 0.66. For I322R, the STK11 functional score was 1.11 ± 0.2. In the case of D358I, the STK11 functional score is reported as 1.15 ± 0.46. For D358C, the STK11 functional score was 1.53 ± 0.14. In the case of M392C, the STK11 functional score is reported as 1.34 ± 0.31. P387V gave an STK11 functional score of 1.13 ± 0.56. P387I showed an STK11 functional score of 1.54 ± 0.17. P387N showed an STK11 functional score of 1.63 ± 0.24. Variant N94W has an STK11 functional score of 0.162 ± 0.14. Y49R showed an STK11 functional score of 0.545 ± 0.19. Y49D showed an STK11 functional score of 0.131 ± 0.35. With Y49L the STK11 functional score was 0.852 ± 0.22. E120T was tested, and the STK11 functional score was 1.43 ± 0.23. K96T gave an STK11 functional score of 1.05 ± 0.082. In the case of Q399A, the STK11 functional score is reported as 1.11 ± 0.58. Variant Q399F has an STK11 functional score of 1.27 ± 0.39. Variant T363Y has an STK11 functional score of 1.18 ± 0.44. For T363Q, the STK11 functional score was 1.52 ± 0.15. Work on R333H yielded an STK11 functional score of 1.05 ± 0.33. V110M showed an STK11 functional score of 0.358 ± 0.072. E293L was tested, and the STK11 functional score was 0.882 ± 0.13. For K108G, the STK11 functional score was 0.95 ± 0.13. K108F gave an STK11 functional score of 1.04 ± 0.3. Variant E349L has an STK11 functional score of 1.47 ± 0.14. S31D showed an STK11 functional score of 1.28 ± 0.37. D352V showed an STK11 functional score of 1.12 ± 0.24. F204I was tested, and the STK11 functional score was 1.23 ± 0.25. In the case of F234R, the STK11 functional score is reported as 1.5 ± 0.19. For G381W, the STK11 functional score was 1.05 ± 0.74. Work on T244Q yielded an STK11 functional score of -0.178 ± 0.32. T244H gave an STK11 functional score of 0.0105 ± 0.12. H313D was tested, and the STK11 functional score was 1.17 ± 0.29. L54G gave an STK11 functional score of 1.22 ± 0.41. K62R was tested, and the STK11 functional score was 1.61 ± 0.36. In the case of F219G, the STK11 functional score is reported as 0.713 ± 0.29. Work on H306W yielded an STK11 functional score of -0.368 ± 0.084. E121R showed an STK11 functional score of 1.31 ± 0.17. Work on T230V yielded an STK11 functional score of 1.5 ± 0.18. For L164C, the STK11 functional score was 1.21 ± 0.15. For A406K, the STK11 functional score was 1.28 ± 0.46. For S283F, the STK11 functional score was 0.745 ± 0.076. S283N showed an STK11 functional score of 1.4 ± 0.29. With S283Y the STK11 functional score was 0.69 ± 0.5. Work on D68W yielded an STK11 functional score of 0.944 ± 0.17. Variant Q170C has an STK11 functional score of 1.51 ± 0.44. P281C gave an STK11 functional score of 0.746 ± 0.32. Variant L117K has an STK11 functional score of 1.3 ± 0.4. Variant L117R has an STK11 functional score of 1.15 ± 0.13. Work on L245M yielded an STK11 functional score of 0.526 ± 0.22.
